The text below walks through data of article PMC9403797, “Back From the Dead: The Atypical Kinase Activity of a Pseudokinase Regulator of Cation Fluxes During Inducible Immunity” (Frontiers in Plant Science, 2022).

The assay addresses T1, MPK19 (Arabidopsis, UniProt Q9LUC3 1-598).
T1 construct: MPK19, MAPK family kinase, Arabidopsis; fusion protein spotted on the functional protein microarray; source: printed on protein microarrays (AtPMA-5000 and AtPMA-10000)
T1 sequence (looked up): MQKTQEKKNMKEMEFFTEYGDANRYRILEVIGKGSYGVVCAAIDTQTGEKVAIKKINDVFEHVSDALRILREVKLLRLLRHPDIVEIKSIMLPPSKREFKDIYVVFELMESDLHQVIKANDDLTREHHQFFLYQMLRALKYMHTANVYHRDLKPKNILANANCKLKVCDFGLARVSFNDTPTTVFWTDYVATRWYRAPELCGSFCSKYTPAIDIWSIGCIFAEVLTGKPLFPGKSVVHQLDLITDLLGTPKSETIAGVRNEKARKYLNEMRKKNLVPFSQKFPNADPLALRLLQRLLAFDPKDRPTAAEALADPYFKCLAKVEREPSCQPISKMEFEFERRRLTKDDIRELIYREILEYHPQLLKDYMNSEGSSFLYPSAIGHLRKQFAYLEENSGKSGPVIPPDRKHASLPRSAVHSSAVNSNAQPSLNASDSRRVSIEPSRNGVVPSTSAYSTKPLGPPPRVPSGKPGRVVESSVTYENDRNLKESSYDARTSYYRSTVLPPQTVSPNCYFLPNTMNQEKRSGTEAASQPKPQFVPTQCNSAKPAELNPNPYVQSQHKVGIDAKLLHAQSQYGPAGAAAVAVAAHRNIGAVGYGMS
The assay is described as follows: peptide or protein array; functional protein microarrays (AtPMA-5000 and AtPMA-10000, about 15,000 Arabidopsis proteins) probed with 150 ul purified ILK1-V5 in solution for 1.5 h with 1% BSA, 5 mM MgCl2 and MnCl2; detected with Cy5-conjugated anti-V5 antibody; three probe arrays against two control arrays without probe; one-sided t-test, 5% significance, FDR. As to conditions: both partners purified.

B1: ILK1-V5 (integrin-linked kinase 1, Arabidopsis) (enzyme, UniProt F4IS56 1-479, looked up)
chain: MENITAQLKRGISRQFSTGSIRRTLSRQFTRQSSLDPRRTNMRFSFGRQSSLDPIRRSPDSSKSDDEPHMSVPENLDSTMQLLFMASKGDVRGIEELLDEGIDVNSIDLDGRTALHIAACEGHLGVVKALLSRRANIDARDRWGSTAAADAKYYGNLDVYNLLKARGAKVPKTRKTPMTVSNPREVPEYELNPLEVQVRKSDGISKGAYQVAKWNGTRVSVKILDKDSYSDPERINAFRHELTLLEKVRHPNVIQFVGAVTQNIPMMIVVEYNPKGDLSVYLQKKGRLSPSKALRFALDIARGMNYLHECKPDPIIHCDLKPKNILLDRGGQLKISGFGMIRLSKISQDKAKVANHKAHIDLSNYYIAPEVYKDEIFDLRVDAHSFGVILYEITEGVPVFHPRPPEEVARMMCLEGKRPVFKTKSRSYPPDIKELIEKCWHPEAGIRPTFSEIIIRLDKIVANCSKQGWWKDTFKFPWK
notes: ILK1, integrin-linked kinase 1, a pseudokinase of the Raf-like MAP3K family, Arabidopsis; also called purified ILK1-V5 protein; source: purified as described previously (Brauer et al., 2014, 2016); purity validated by mass spectrometry
For the molecule B1, the binding result is listed as “binds”.
